Our source for the Kd values is article PMC8067440 (Journal of Personalized Medicine, 2021).

Bounds are passed on as bounds.

For data set [1], the target named is artificial monomeric form of alanine:glyoxylate aminotransferase on the major allele (MMa), R118A/F238S/F240S, recombinant purified (human) (UniProt P21549). Briefly: SEC; apo-form; Superdex 200 10/300 GL, room temperature, KP 0.1 M, pH 7.4; samples at different concentrations incubated overnight at 25 °C; percent dimer from peak areas fitted; dimer to monomers.

Data set [2] shares this target. Briefly: SEC; holo-form, in the presence of saturating PLP; Superdex 200 10/300 GL, room temperature, KP 0.1 M, pH 7.4; samples at different concentrations incubated overnight at 25 °C; percent dimer from peak areas fitted; dimer to monomers.
Data set [3] concerns the target T1, AGT (DMa, major allele) (Homo sapiens, UniProt P21549, F238S/F240S/I340M/P11L/R118A).
T1 construct: gene AGXT; full length, expressed in E. coli BL21(DE3), purified on HisPrep FF (His-tagged, removal not mentioned)
T1 sequence (P21549 1-392 P11L/R118A/F238S/F240S/I340M): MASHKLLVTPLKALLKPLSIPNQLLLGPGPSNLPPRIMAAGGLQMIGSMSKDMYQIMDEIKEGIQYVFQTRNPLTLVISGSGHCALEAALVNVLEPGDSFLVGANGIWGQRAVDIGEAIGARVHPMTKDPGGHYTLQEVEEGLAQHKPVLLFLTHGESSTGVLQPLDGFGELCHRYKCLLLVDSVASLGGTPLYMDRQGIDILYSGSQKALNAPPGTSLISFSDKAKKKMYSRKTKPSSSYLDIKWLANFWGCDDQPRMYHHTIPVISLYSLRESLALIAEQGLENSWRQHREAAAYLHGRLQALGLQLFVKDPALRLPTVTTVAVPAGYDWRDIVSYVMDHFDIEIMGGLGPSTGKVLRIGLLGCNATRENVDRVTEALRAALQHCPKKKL
Put plainly: not described in detail here for MMi. The format is binding. Conditions: read-out: KD(PLP). The text has this: not described in detail here for MMi on AGT (DMa, major allele; rows DMi, MMa, MMi)

In data set [4] the target is T2, AGT (DMa, major allele) (Homo sapiens, UniProt P21549, I340M/P11L).
T2 construct: gene AGXT; full length, expressed in E. coli BL21(DE3), purified on HisPrep FF (His-tagged, removal not mentioned)
T2 sequence (P21549 1-392 P11L/I340M): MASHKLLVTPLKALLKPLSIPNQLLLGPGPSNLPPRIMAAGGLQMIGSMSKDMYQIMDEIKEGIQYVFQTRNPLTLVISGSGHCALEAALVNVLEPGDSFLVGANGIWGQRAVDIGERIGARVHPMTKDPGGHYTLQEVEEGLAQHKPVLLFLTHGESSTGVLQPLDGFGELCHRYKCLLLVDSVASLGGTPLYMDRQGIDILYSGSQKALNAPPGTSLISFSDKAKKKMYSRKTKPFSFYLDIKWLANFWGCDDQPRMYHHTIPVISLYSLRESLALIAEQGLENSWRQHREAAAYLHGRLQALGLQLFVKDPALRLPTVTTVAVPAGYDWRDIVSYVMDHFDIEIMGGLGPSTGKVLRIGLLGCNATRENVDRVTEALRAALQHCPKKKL
Put plainly: not described here for DMi. Conditions: read-out: KD(PLP). Type of data set: binding. The source says: not described here for DMi on AGT (DMa, major allele; rows DMi, MMa, MMi)

Data set [5] has as its target T3, AGT (DMa, major allele) (Homo sapiens, UniProt P21549, F238S/F240S/R118A).
T3 construct: gene AGXT; full length, expressed in E. coli BL21(DE3), purified on HisPrep FF (His-tagged, removal not mentioned)
T3 sequence (P21549 1-392 R118A/F238S/F240S): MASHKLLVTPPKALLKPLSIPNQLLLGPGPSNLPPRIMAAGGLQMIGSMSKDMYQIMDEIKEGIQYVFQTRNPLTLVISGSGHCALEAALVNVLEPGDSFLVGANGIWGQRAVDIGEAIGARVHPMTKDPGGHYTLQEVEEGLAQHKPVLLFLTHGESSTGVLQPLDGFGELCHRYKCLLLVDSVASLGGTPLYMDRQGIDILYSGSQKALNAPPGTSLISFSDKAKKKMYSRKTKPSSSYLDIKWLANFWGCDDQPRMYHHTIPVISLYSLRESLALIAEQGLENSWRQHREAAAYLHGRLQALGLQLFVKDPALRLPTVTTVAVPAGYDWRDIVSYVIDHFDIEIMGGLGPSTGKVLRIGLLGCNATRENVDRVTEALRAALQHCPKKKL
Briefly: CD signal at […] nm, tight-binding quadratic fit. Conditions: read-out: KD(PLP).

Data set [6] addresses T4, DMa-FlAsH (row MMa-FlAsH) (Homo sapiens, UniProt P21549, INS254CCPGCC).
T4 construct: gene AGXT; full length with CCPGCC FlAsH motif inserted in a surface loop, expressed in E. coli BL21(DE3), purified on HisPrep FF (His-tagged)
T4 sequence (P21549 with tags, fused parts or gaps INS254CCPGCC): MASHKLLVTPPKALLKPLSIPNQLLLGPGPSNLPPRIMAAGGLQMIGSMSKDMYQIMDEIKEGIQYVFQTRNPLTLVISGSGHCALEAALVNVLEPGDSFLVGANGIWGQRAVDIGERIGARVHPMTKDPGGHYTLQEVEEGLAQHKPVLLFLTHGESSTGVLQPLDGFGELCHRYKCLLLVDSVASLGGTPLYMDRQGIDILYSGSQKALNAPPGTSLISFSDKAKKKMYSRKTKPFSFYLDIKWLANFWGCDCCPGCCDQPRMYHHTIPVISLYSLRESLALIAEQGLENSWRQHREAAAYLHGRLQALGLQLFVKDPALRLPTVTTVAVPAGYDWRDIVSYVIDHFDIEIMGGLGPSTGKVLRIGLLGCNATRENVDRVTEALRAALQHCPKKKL
Briefly: intrinsic fluorescence quenching of apoenzyme, tight-binding quadratic fit. The note with it: 0.1 μM apoenzyme, 24 h incubation, PLP 0.01–10 μM. As to the method: intrinsic fluorescence quenching of apoenzyme, tight-binding quadratic fit on DMa-FlAsH (row MMa-FlAsH) | The KD(PLP) of DMa-FlAsH was calculated by measuring the intrinsic fluorescence quenching

The target of data set [7] is T5, DMa-FlAsH (row MMa-FlAsH) (Homo sapiens, UniProt P21549, R118A/F238S/F240S/INS254CCPGCC).
T5 construct: gene AGXT; full length with CCPGCC FlAsH motif inserted in a surface loop, expressed in E. coli BL21(DE3), purified on HisPrep FF (His-tagged)
T5 sequence (P21549 with tags, fused parts or gaps R118A/F238S/F240S/INS254CCPGCC): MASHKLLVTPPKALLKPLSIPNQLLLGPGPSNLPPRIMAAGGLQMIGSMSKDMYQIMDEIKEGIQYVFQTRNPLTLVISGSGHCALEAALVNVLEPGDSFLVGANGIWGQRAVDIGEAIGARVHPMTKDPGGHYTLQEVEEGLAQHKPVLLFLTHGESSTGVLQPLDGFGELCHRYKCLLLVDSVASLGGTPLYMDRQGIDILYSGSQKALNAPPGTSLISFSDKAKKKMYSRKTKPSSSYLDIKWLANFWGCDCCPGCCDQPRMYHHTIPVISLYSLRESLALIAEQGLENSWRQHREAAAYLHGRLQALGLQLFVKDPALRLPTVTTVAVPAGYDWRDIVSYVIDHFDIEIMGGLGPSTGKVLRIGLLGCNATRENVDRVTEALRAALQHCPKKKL
Put plainly: CD signal at […] nm, tight-binding quadratic fit. Conditions: 10 μM apoenzyme, 24 h incubation, PLP 1–300 μM.

The target of data set [8] is T6, AGT (DMa, major allele) (Homo sapiens, UniProt P21549).
T6 construct: gene AGXT; full length, expressed in E. coli BL21(DE3), purified on HisPrep FF (His-tagged, removal not mentioned)
T6 sequence (P21549 1-392): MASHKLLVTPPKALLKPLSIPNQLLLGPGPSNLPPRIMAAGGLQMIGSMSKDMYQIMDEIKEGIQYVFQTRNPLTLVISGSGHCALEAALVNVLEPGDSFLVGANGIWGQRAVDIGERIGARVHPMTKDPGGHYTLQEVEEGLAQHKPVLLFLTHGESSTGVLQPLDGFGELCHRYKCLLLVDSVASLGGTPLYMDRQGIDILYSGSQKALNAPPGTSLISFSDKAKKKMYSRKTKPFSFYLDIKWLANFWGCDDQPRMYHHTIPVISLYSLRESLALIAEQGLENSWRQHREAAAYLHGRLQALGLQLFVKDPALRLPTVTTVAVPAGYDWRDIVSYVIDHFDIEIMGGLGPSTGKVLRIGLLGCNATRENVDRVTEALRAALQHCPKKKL
Briefly: not described here for DMa. The note with it: read-out: KD(PLP). The format is binding. The text has this:
not described here for DMa on AGT (DMa, major allele; rows DMi, MMa, MMi)

Data set [9] concerns the molecule itself. Put plainly: SEC; apo-form; Superdex 200 10/300 GL, room temperature, KP 0.1 M, pH 7.4; samples at different concentrations incubated overnight at 25 °C; percent dimer from peak areas fitted; dimer to monomers.
Data set [10] concerns the molecule itself. Briefly: SEC; holo-form, in the presence of saturating PLP; Superdex 200 10/300 GL, room temperature, KP 0.1 M, pH 7.4; samples at different concentrations incubated overnight at 25 °C; percent dimer from peak areas fitted; dimer to monomers.

On to “artificial monomeric form of alanine:glyoxylate aminotransferase on the major allele (MMa), R118A/F238S/F240S, recombinant purified (from UniProt P21549 1-392) (enzyme)”, for which the Kd came out at 4100 nM in data set [1] and 1500 nM in data set [2].
As for `Cc1ncc(COP(=O)(O)O)c(C=O)c1O` [PLP], the Kd on AGT (DMa, major allele) [3] came to 4400 ± 500 nM; at AGT (DMa, major allele) [4], 260 ± 20 nM; on AGT (DMa, major allele) [5], 3200 ± 600 nM; in data set [6] it was 250 ± 30 nM; in data set [7], 7200 ± 1100 nM; on AGT (DMa, major allele) [8], 270 ± 30 nM.

B1: alanine:glyoxylate aminotransferase, native dimeric form encoded by the major allele (DMa), recombinant purified (enzyme, human, UniProt P21549 1-392, looked up)
chain: MASHKLLVTPPKALLKPLSIPNQLLLGPGPSNLPPRIMAAGGLQMIGSMSKDMYQIMDEIKEGIQYVFQTRNPLTLVISGSGHCALEAALVNVLEPGDSFLVGANGIWGQRAVDIGERIGARVHPMTKDPGGHYTLQEVEEGLAQHKPVLLFLTHGESSTGVLQPLDGFGELCHRYKCLLLVDSVASLGGTPLYMDRQGIDILYSGSQKALNAPPGTSLISFSDKAKKKMYSRKTKPFSFYLDIKWLANFWGCDDQPRMYHHTIPVISLYSLRESLALIAEQGLENSWRQHREAAAYLHGRLQALGLQLFVKDPALRLPTVTTVAVPAGYDWRDIVSYVIDHFDIEIMGGLGPSTGKVLRIGLLGCNATRENVDRVTEALRAALQHCPKKKL
notes: human alanine:glyoxylate aminotransferase (AGT), major allele (Pro11, Ile340); bacterial construct pAGT-Ma; Homodimer in its native state; Used as apo-form and as holo-form (with PLP); also called AGT; AGT-Ma; source: E. coli BL21(DE3), purified (HisPrep FF)
B1: the Kd in [9] and in data set [10] was below 300 nM in each case.

B2: alanine:glyoxylate aminotransferase, native dimeric form encoded by the minor allele (DMi), recombinant purified (enzyme, human, UniProt P21549 1-392, looked up)
chain: MASHKLLVTPLKALLKPLSIPNQLLLGPGPSNLPPRIMAAGGLQMIGSMSKDMYQIMDEIKEGIQYVFQTRNPLTLVISGSGHCALEAALVNVLEPGDSFLVGANGIWGQRAVDIGERIGARVHPMTKDPGGHYTLQEVEEGLAQHKPVLLFLTHGESSTGVLQPLDGFGELCHRYKCLLLVDSVASLGGTPLYMDRQGIDILYSGSQKALNAPPGTSLISFSDKAKKKMYSRKTKPFSFYLDIKWLANFWGCDDQPRMYHHTIPVISLYSLRESLALIAEQGLENSWRQHREAAAYLHGRLQALGLQLFVKDPALRLPTVTTVAVPAGYDWRDIVSYVMDHFDIEIMGGLGPSTGKVLRIGLLGCNATRENVDRVTEALRAALQHCPKKKL
notes: human alanine:glyoxylate aminotransferase (AGT), minor allele (Pro11Leu, Ile340Met); bacterial construct pAGT-Mi; Homodimer in its native state; Used as apo-form and as holo-form (with PLP); also called AGT-Mi; source: E. coli BL21(DE3), purified (HisPrep FF)
As to B2, the Kd in data set [9] and in [10] was below 300 nM in each case.

B3: artificial monomeric form of alanine:glyoxylate aminotransferase on the minor allele (MMi), R118A/F238S/F240S, recombinant purified (enzyme, human, UniProt P21549 1-392, looked up)
chain: MASHKLLVTPLKALLKPLSIPNQLLLGPGPSNLPPRIMAAGGLQMIGSMSKDMYQIMDEIKEGIQYVFQTRNPLTLVISGSGHCALEAALVNVLEPGDSFLVGANGIWGQRAVDIGEAIGARVHPMTKDPGGHYTLQEVEEGLAQHKPVLLFLTHGESSTGVLQPLDGFGELCHRYKCLLLVDSVASLGGTPLYMDRQGIDILYSGSQKALNAPPGTSLISFSDKAKKKMYSRKTKPSSSYLDIKWLANFWGCDDQPRMYHHTIPVISLYSLRESLALIAEQGLENSWRQHREAAAYLHGRLQALGLQLFVKDPALRLPTVTTVAVPAGYDWRDIVSYVMDHFDIEIMGGLGPSTGKVLRIGLLGCNATRENVDRVTEALRAALQHCPKKKL
notes: human alanine:glyoxylate aminotransferase (AGT), minor allele (Pro11Leu, Ile340Met), with the interfacial mutations R118A/F238S/F240S on pAGT-Mi; Used as apo-form and as holo-form (with PLP); source: E. coli BL21(DE3), purified (HisPrep FF)
B3: the Kd in data set [9] is 80000 ± 1000 nM; in data set [10], 9400 ± 500 nM.
